Assay results as given in PMC11342271, “A high-throughput screening identifies MCM chromatin loading inhibitors targeting cells with increased replication origins” (iScience, 2024).

What was measured:
[1] = target: T1, recombinant Xenopus laevis CDC6 (rCDC6) (Xenopus laevis, UniProt P79946); experiment: isothermal titration calorimetry, one-site fit; format: binding; conditions: 25 °C; PBS, 10% glycerol, 1 mM MgCl2, 1 mM DTT, 1% DMSO; CDC6 74 μM (75 μM in methods) titrated with 1 mM compound
T1 construct: gene cdc6.S; full-length; GST fusion from pGEX-6P-1 in E. coli Rosetta (DE3); GST cleaved with HRV 3C protease; Resource S and Superdex 200 purified
T1 sequence (P79946 1-554): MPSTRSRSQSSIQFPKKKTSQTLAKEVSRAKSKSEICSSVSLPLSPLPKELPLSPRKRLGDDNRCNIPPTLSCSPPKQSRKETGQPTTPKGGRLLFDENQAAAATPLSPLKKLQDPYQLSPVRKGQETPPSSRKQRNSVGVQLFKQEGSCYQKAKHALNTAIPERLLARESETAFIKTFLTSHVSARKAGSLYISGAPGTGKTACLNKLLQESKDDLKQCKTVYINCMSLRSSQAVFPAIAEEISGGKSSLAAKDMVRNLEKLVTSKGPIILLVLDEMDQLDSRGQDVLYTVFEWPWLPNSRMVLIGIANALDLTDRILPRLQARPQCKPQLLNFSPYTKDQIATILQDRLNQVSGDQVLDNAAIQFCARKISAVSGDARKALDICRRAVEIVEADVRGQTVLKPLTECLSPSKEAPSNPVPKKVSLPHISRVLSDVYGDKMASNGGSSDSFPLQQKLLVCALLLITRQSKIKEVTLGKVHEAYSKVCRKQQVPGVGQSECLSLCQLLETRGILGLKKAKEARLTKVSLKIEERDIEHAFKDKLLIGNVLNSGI

[2] = system: MCM2-7 (detected via MCM7) (Xenopus laevis); experiment: ELISA (MCM7) on immobilized DNA; conditions: 5' biotin (BtnTg), Interphase Xenopus laevis egg extract (HSS; 2-fold diluted in ELISA), 30 min, room temperature (ELISA), wash buffer, salt and pH not given in the material

| Kd [1] | Compound | binding signal ([2]; + 187 uM NSC-95397 (reduction at least 40%)) | binding signal ([2]; + 187 uM aminacrine (DNA intercalator; reduction at least 40%)) | binding signal ([2]; + 187 uM ethacridine (DNA intercalator; reduction at least 40%)) |
| --- | --- | --- | --- | --- |
| 323 ± 269 nM | O=C1C(SCCO)=C(SCCO)C(=O)c2ccccc21 [NSC-95397, 2,3-bis(2-hydroxyethylsulfanyl) naphthalene-1,4-dione] | – | – | – |
| – | bDNA (1.8 kb biotinylated DNA) | < 60 % of DMSO | < 60 % of DMSO | < 60 % of DMSO |
